Measured values taken from the supplement of paper PMC11865577.

How the values were obtained:
Test in all cases: pull-down binding Z-score (relative to library population); higher = stronger binding
[1] = tested on: TO-3-N3 (biotin conjugate); settings: RNA library: Library-2
In short: (§1)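 Streptavidin beads with 100 pmol of biotin-conjugated small molecule were incubated for 60 min at 25 °C with 1 μg of heat-folded Cy5- or Cy3-end-labelled RNA library in phosphate/NaCl/KCl buffer. Bound RNA was eluted in hot SDS after three washes and hybridised to a DNA barcode microarray at 55.5 °C for 20 h. Each binding score is a library-referenced Z-score, computed after beads-only subtraction and a trimmed mean of barcoded replicate probes.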

[2] = tested on: TO-3-N3-2 (biotin conjugate); settings: RNA library: Library-2
In short: as §1

[3] = tested on: G-clamp-N3 (biotin conjugate); settings: RNA library: Library-1 (pre-miRNA loops + repeats)
In short: as §1

[4] = tested on: TO-N3-2 (biotin conjugate); settings: RNA library: Library-2
In short: as §1

[5] = tested on: TO-N3 (biotin conjugate); settings: RNA library: Library-2
In short: as §1

| Sequence | pull-down binding Z-score [1] | pull-down binding Z-score [2] | pull-down binding Z-score [3] | pull-down binding Z-score [4] | pull-down binding Z-score [5] |
| --- | --- | --- | --- | --- | --- |
| UGAGUUUA [hsa-mir-451a] | -0.287 | -0.207 | -1.09 | -0.372 | -0.22 |
| GCAUCCUUGGAAUCUGCACUCAAGGGAUGC [hsa-mir-5089] | 0.451 | -0.0765 | 0.605 | 0.0295 | 0.358 |
| UCCAGCUGUGUGAUAUUCUGCUG [hsa-mir-19b-1] | 0.907 | 0.159 | -0.727 | 0.384 | 0.909 |
| UGCAGUGAGCAACCUACACAACUGCA [hsa-mir-5589] | -0.0632 | -0.317 | -0.716 | -0.188 | -0.0697 |
| CCGCCCUCGUGUCUGUGGCGGUGG [hsa-mir-663a] | 0.171 | -0.231 | 0.239 | 0.679 | 0.334 |
| CACUACAAGAAGAAUGUAGUUGUG [hsa-mir-19a] | -0.108 | 0.234 | 1.3 | 0.739 | -0.154 |
| CAUGUAUGUGUAUAUACAUAUAUAUG [hsa-mir-297] | 0.635 | -0.125 | 1.71 | -0.648 | 0.218 |
| CAGUGCUUUUAGAAAAUUUGUGUG [hsa-mir-581] | -0.514 | 0.00216 | -0.904 | -0.187 | -0.558 |
| UUUGCCAUUGAAAGUAAUGGCAAA [hsa-mir-548d-2] | -0.691 | -0.422 | 0.739 | -1.04 | -1.12 |
| CAACUACUCAGGAGGCUG [hsa-mir-566] | -0.196 | -0.179 | -0.123 | 0.304 | 0.0834 |
| GAGACUUAGAAAUCCCUAAGUCUC [hsa-mir-3921] | -0.258 | -0.246 | 0.443 | -0.875 | -0.761 |
| CAGACUGUCUUCCCAAAUAGCCUG [hsa-mir-4772] | 0.00537 | -0.219 | -1.42 | -0.223 | -0.0312 |
| GAAGCGAGAUGUUUGUCUAAA [hsa-mir-6835] | 0.00611 | 0.262 | -0.211 | 0.915 | 0.398 |
| UAUUCGCUUUAUUGACUUCGAAUA [hsa-mir-369] | -0.0221 | -0.144 | -0.422 | -0.736 | -0.246 |
| UUUGCCAUUACUUUCAGUAGCAAA [hsa-mir-548c] | -0.131 | -0.441 | -0.417 | -0.814 | -0.379 |
| GGAGCCUUCCCCAGAGGAGUCAGGCC [hsa-mir-4312] | 0.273 | -0.0198 | 0.386 | 1.41 | 0.698 |
| UGGCCAUUUCCUACCA [hsa-mir-617] | -0.72 | -0.393 | -1.33 | -0.383 | -0.908 |
| CCUUCUAAUGAGUAUGCUUAACUUGGUAGAAGG [hsa-mir-3914-1] | -0.108 | -0.0963 | 0.508 | -0.858 | -0.141 |
| AAUGCAGUCUGCACCCUGCUGCAUU [hsa-mir-6504] | 0.237 | -0.145 | -0.398 | 0.0157 | 0.0527 |

| Sequence | pull-down binding Z-score [1] | pull-down binding Z-score [2] | pull-down binding Z-score [3] | pull-down binding Z-score [4] | pull-down binding Z-score [5] |
| --- | --- | --- | --- | --- | --- |
| GGGGGCAGGCAGGGGAUUGGCUAAGAACCUGACUCUUGC [hsa-mir-7703] | 2.18 | 1.44 | -0.0197 | 1.75 | 2.48 |
| CCACGGGCUGGGCACAGUGG [hsa-mir-3159] | 1.04 | 0.391 | 1.07 | 0.891 | 1.18 |
| CGUGCUCAGCUUGGCACCCAAGUUCUGC [hsa-mir-7704] | -0.129 | -0.12 | -0.0193 | 1.39 | 0.485 |
| GUCAUUUUUCUGUGACUGCACAUGGC [hsa-mir-3136] | -0.191 | -0.15 | -0.497 | -0.214 | -0.215 |
| UUUUUUUCCAAUGAAAAUAACGAAACCUGUUAUUUCCCAUUGAGGGGGAAAAA [hsa-mir-4484] | -1.12 | -0.221 | 0.398 | -0.641 | -1.15 |
| GUUUGGCAGGACAGUUUCCAAGC [hsa-mir-6779] | -0.587 | -0.323 | -0.893 | 0.15 | -0.451 |
| CUCACAUGGAGUAAAAUAUGAU [hsa-mir-3134] | 0.744 | 0.194 | -1.71 | 0.206 | 0.711 |
| UCUUCCCAGAAUUGGGAAAA [hsa-mir-320c-2] | -0.813 | -0.72 | -0.574 | -1.68 | -1.33 |
| CUUCGCGCUAGUUUGUUUGUGUUAAG [hsa-mir-6077] | -0.0696 | 0.0164 | -0.639 | -0.426 | -0.0943 |
| ACACACACCAGACUAUGGAAGCCAGUGU [hsa-mir-147a] | -0.455 | -0.471 | -0.656 | 0.0135 | -0.528 |
| GUGGAAUGCAAAGUCCCAC [hsa-mir-5698] | -0.264 | -0.36 | -0.39 | -0.551 | -0.332 |
| AGAUAUAUAUAUACCUCAUAUGUAUAUGGUAUAC [hsa-mir-4777] | -1.2 | -0.53 | -1.5 | -0.944 | -1.37 |
| AGAAGAACU [hsa-mir-378j] | -0.279 | -0.0957 | -0.205 | -0.277 | -0.272 |
| CUUUUUGCUGAUGGAGGGUCUUGCCUCCAUGGGGAUGGCUG [hsa-mir-4502] | 0.828 | 0.159 | 1 | 0.571 | 0.938 |
| AGGACACAGGCUGGCACUGAGGUCCC [hsa-mir-6887] | 0.0768 | -0.0807 | -0.394 | 1.41 | 0.639 |
| UUUCUGUUGUCUGAAAGCAGA [hsa-mir-515-1_515-2] | 0.216 | 0.223 | -0.445 | -0.0707 | 0.262 |
| AUGUUCACUUGAUUAAUGGCGAAUAU [hsa-mir-1185-2_1185-1] | -0.629 | -0.39 | 0.337 | -0.673 | -0.89 |
| CUAGUAUGUCUCAUCCCCUACUAG [hsa-mir-151a] | -0.144 | -0.201 | 0.0263 | 0.072 | -0.343 |
| AUGGGAGCCCAGAGACGUCCUAU [hsa-mir-8074] | -0.304 | -0.433 | 0.253 | 0.669 | 0.0134 |
